Laboratory results as given in the FLAb antibody collection (doi:10.7554/elife.23156).

B1: scFv; the commonest letter at each place (parent)
chain 1: EVKLDETGGGLVQPGRPMKLSCVASGFTFSDYWMNWVRQSPEKGLEWVAQIRNKPYNYETYYSDSVKGRFTISRDDSKSSVYLQMNNLRVEDMGIYYCTGSYYGMDYWGQGTSVTVS
chain 2: DVVMTQTPLSLPVSLGDQASISCRSSQSLVHSNGNTYLRWYLQKPGQSPKVLIYKVSNRFSGVPDRFSGSGSGTDFTLKISRVEAEDLGVYFCSQSTHVPWTFGGGTKLEIK

What was measured:
[1] = variants of: B1; test: Kd (Tite-Seq); settings: with fluorescein; format: scFv 4-4-20, heavy + light
[2] = variants of: B1; test: yeast surface expression (ratio to wild type); higher = more expressed; settings: format: scFv 4-4-20, heavy + light

Row | Variant | Kd [1] | yeast surface expression [2]
1 | chain 1 Y102N W108D | ≥ 10 µM | 0.259
2 | chain 1 G109I | ≥ 10 µM | 0.269
3 | chain 1 G109P | ≥ 10 µM | 0.312
4 | chain 1 G109Y | ≥ 10 µM | 0.212
5 | chain 1 S30N W36D | ≥ 10 µM | 0.393
6 | chain 1 Y102H M105T | ≥ 10 µM | 0.972
7 | chain 1 G100N Y102N | ≥ 10 µM | 0.643
8 | chain 1 W33E V37C | ≥ 10 µM | 0.709
9 | chain 1 G100W D106F | ≥ 10 µM | 0.18
10 | chain 1 S101V M105H | ≥ 10 µM | 0.496
11 | chain 1 S30I M34N | ≥ 10 µM | 0.512
12 | chain 1 G104R M105R | ≥ 10 µM | 0.672
13 | chain 1 Y102L D106G | ≥ 10 µM | 0.569
14 | chain 1 G104S Y107T | ≥ 10 µM | 0.831
15 | chain 1 G100P G109A | ≥ 10 µM | 0.3
16 | chain 1 Y107P W108A | ≥ 10 µM | 0.455
17 | chain 1 Y102T Y103R | ≥ 10 µM | 1.21
18 | chain 1 Y102Q M105V | ≥ 10 µM | 1.05
19 | chain 1 G104L M105G Y107F | ≥ 10 µM | 0.414
20 | chain 1 W108L | ≤ 0.000316 µM | 0.827
21 | chain 1 W108Y | ≤ 0.000316 µM | 0.963
22 | chain 1 F29D Y32E | ≥ 10 µM | 0.599
23 | chain 1 G100S Y102C | ≥ 10 µM | 0.675
24 | chain 1 D106S | 0.00279 µM | 1.16

Row | Variant | Kd [1] | yeast surface expression [2]
25 | chain 1 Y103P D106H | ≥ 10 µM | 0.565
26 | chain 1 M34H N35P | ≥ 10 µM | 2.76
27 | chain 1 F29D N35F W36G | ≥ 10 µM | 0.644
28 | chain 1 N35A W36P | ≥ 10 µM | 0.663
29 | chain 1 S101T D106Q | ≥ 10 µM | 0.796
30 | chain 1 G104Q G109T | ≥ 10 µM | 0.272
31 | chain 1 G104Q G109M | ≥ 10 µM | 0.0981
32 | chain 1 F29P V37K | 2.01 µM | 0.288
33 | chain 1 F29W S30I | ≥ 10 µM | 0.599
34 | chain 1 S101W G109T | ≥ 10 µM | 0.212
35 | chain 1 T28M | 0.00265 µM | 1.02
36 | chain 1 T28F | 0.00444 µM | 0.842
37 | chain 1 T28E | 0.0017 µM | 1.04
38 | chain 1 T28R | 0.00138 µM | 0.917
39 | chain 1 W36M V37W | ≥ 10 µM | 0.496
40 | chain 1 W36M V37P | ≥ 10 µM | 0.36
41 | chain 1 S30D V37F | 4.37 µM | 0.942
42 | chain 1 S30V Y32D | ≥ 10 µM | 0.745
43 | chain 1 S101P Y103R | ≥ 10 µM | 0.277
44 | chain 1 F29Y M34K | ≥ 10 µM | 0.646
45 | chain 1 F29T D31N | 0.0189 µM | 1.01
46 | chain 1 M105V W108A | ≥ 10 µM | 0.434
47 | chain 1 T28V W33G | ≥ 10 µM | 0.759
48 | chain 1 Y107N W108D G109C | ≥ 10 µM | 0.313

Row | Variant | Kd [1] | yeast surface expression [2]
49 | chain 1 N35A | ≥ 10 µM | 0.902
50 | chain 1 S101F W108E | ≥ 10 µM | 0.216
51 | chain 1 S101F W108F | ≥ 10 µM | 0.199
52 | chain 1 T28Q V37L | 3.55 µM | 0.864
53 | chain 1 F29Y N35W | ≥ 10 µM | 0.0981
54 | chain 1 Y103D G109D | ≥ 10 µM | 0.542
55 | chain 1 G104D | ≥ 10 µM | 0.918
56 | chain 1 G100N S101C | ≥ 10 µM | 0.234
57 | chain 1 T28G F29P | ≥ 10 µM | 0.769
58 | chain 1 S30H Y32R V37Q | 0.0189 µM | 1.99
59 | chain 1 T28R W36S | ≥ 10 µM | 0.272
60 | chain 1 G100Y Y107Q | ≥ 10 µM | 0.595
61 | chain 1 Y103A G104Y G109T | ≥ 10 µM | 0.211
62 | chain 1 Y103C G109D | ≥ 10 µM | 0.356
63 | chain 1 G100A D106W | ≥ 10 µM | 0.393
64 | chain 1 M34Y V37M | 0.0107 µM | 0.807
65 | chain 1 S101F W108S G109S | ≥ 10 µM | 0.242
66 | chain 1 Y32R W33I | ≥ 10 µM | 0.763
67 | chain 1 S101T G104F | ≥ 10 µM | 0.437
68 | chain 1 Y102M M105T W108T | ≥ 10 µM | 0.539
69 | chain 1 F29K M34F | 0.0233 µM | 0.631
70 | chain 1 Y32F M34L | 0.0221 µM | 0.781
71 | chain 1 Y32V M34D | ≥ 10 µM | 0.218
72 | chain 1 Y103E M105I | ≥ 10 µM | 0.9

Row | Variant | Kd [1] | yeast surface expression [2]
73 | chain 1 D31Q N35L | ≥ 10 µM | 0.418
74 | chain 1 Y103T G104W | ≥ 10 µM | 0.534
75 | chain 1 M105S D106E | ≥ 10 µM | 1.32
76 | chain 1 M34W | 0.0391 µM | 0.869
77 | chain 1 G100P S101T | ≥ 10 µM | 0.486
78 | chain 1 D106G Y107W | ≥ 10 µM | 0.338
79 | chain 1 S30V | 0.000743 µM | 0.901
80 | chain 1 S30R Y32Q | ≥ 10 µM | 1.13
81 | chain 1 T28R W33L | ≥ 10 µM | 0.935
82 | chain 1 Y32C V37Q | ≥ 10 µM | 0.692
83 | chain 1 G100Q M105S | ≥ 10 µM | 0.521
84 | chain 1 Y107D G109R | ≥ 10 µM | 0.366
85 | chain 1 S30H M34C | 6.96 µM | 0.623
86 | chain 1 Y103N G104F | ≥ 10 µM | 0.839
87 | chain 1 G104K W108Q | ≥ 10 µM | 0.294
88 | chain 1 W108A G109H | ≥ 10 µM | 0.356
89 | chain 1 D106W Y107L | ≥ 10 µM | 0.308
90 | chain 1 G100P G104I | ≥ 10 µM | 0.337
91 | chain 1 N35L V37P | ≥ 10 µM | 0.67
92 | chain 1 W33C V37W | ≥ 10 µM | 0.503
93 | chain 1 W33R V37D | 0.205 µM | 1.19
94 | chain 1 Y32I M34A | ≥ 10 µM | 0.821
95 | chain 1 S101R W108V | ≥ 10 µM | 0.24
96 | chain 1 Y102V Y107F | 0.00226 µM | 0.877

Row | Variant | Kd [1] | yeast surface expression [2]
97 | chain 1 Y102M Y103F D106Y | ≥ 10 µM | 0.388
98 | chain 1 S101T Y107E | ≥ 10 µM | 0.565
99 | chain 1 M105N G109C | ≥ 10 µM | 0.123
100 | chain 1 Y103I D106Q | ≥ 10 µM | 0.516
101 | chain 1 T28Y N35S | ≥ 10 µM | 0.691
102 | chain 1 M105V | 4.25 µM | 0.993
103 | chain 1 M105I | 0.0335 µM | 0.914
104 | chain 1 S30P W33E | ≥ 10 µM | 1.01
105 | chain 1 S30T V37C | 0.000454 µM | 0.826
106 | chain 1 Y103C | 0.00493 µM | 0.775
107 | chain 1 Y103K | 0.00301 µM | 1.04
108 | chain 1 T28W V37C | 0.00128 µM | 0.75
109 | chain 1 W33I | ≥ 10 µM | 0.854
110 | chain 1 W33Q | ≥ 10 µM | 1.01
111 | chain 1 W33H | ≥ 10 µM | 0.765
112 | chain 1 W33G | ≥ 10 µM | 0.809
113 | chain 1 Y107I G109Q | ≥ 10 µM | 0.442
114 | chain 1 G100N M105Y | ≥ 10 µM | 0.462
115 | chain 1 G100C M105F | ≥ 10 µM | 0.642
116 | chain 1 Y32V W33N | ≥ 10 µM | 1.16
